Where no end group is shown, it is not given here. fluorescein = fluorescein moiety attached to the N-terminus of the peptide (N-terminal fluorescein label)
How the values were obtained:
Assay in all cases: fluorescence anisotropy equilibrium binding (Kd,app), ExoI variant titrated into fluorescein-labeled peptide
ExoI Arg148Ala variant = target: T1, ExoI Arg148Ala variant (Escherichia coli, UniProt P04995 1-475)
T1 construct: also called R148A; Arg148 variant
T1 sequence: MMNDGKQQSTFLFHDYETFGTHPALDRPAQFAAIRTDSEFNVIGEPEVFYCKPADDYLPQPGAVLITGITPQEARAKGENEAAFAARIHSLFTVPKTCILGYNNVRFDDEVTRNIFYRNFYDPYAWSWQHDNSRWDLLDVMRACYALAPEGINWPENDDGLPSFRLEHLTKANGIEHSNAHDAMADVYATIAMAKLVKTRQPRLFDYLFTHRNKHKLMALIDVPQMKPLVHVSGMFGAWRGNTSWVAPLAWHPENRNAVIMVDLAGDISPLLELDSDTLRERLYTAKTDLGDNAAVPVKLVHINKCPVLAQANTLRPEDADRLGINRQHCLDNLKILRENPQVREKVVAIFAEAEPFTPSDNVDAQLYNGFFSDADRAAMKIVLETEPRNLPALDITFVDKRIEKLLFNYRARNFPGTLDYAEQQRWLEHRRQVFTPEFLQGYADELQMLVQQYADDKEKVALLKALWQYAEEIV

ExoI Lys227Ala variant = target: T2, ExoI Lys227Ala variant (Escherichia coli, UniProt P04995 1-475)
T2 construct: basic ridge residue; also called K227A; Lys227 variant
T2 sequence: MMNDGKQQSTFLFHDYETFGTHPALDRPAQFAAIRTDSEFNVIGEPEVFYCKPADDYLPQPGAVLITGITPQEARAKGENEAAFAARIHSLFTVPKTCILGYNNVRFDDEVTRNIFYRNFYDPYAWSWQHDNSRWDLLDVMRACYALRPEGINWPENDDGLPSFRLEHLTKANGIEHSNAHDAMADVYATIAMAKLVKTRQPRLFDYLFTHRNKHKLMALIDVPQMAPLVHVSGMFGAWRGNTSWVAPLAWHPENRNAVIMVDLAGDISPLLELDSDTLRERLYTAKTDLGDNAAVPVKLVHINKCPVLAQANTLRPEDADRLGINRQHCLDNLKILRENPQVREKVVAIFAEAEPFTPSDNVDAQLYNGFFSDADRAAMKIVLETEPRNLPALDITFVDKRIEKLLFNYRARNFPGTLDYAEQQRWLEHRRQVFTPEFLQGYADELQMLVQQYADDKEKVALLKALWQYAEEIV

ExoI Gln311Ala variant = target: T3, ExoI Gln311Ala variant (Escherichia coli, UniProt P04995 1-475)
T3 construct: also called Q311A; Gln311 variant
T3 sequence: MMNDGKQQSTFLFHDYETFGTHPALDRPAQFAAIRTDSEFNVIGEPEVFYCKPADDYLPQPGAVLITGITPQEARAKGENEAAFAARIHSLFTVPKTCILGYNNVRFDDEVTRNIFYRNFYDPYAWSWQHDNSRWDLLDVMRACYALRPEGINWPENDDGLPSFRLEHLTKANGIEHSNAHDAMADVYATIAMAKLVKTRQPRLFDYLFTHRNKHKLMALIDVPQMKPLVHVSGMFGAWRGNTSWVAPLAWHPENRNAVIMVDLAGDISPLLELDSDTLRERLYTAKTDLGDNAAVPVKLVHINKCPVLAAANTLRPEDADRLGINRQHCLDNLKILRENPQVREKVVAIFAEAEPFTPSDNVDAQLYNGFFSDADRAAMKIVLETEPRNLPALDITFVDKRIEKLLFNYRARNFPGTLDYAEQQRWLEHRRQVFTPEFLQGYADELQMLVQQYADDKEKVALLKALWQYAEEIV

ExoI Leu331Ala variant = target: T4, ExoI Leu331Ala variant (Escherichia coli, UniProt P04995 1-475)
T4 construct: also called L331A
T4 sequence: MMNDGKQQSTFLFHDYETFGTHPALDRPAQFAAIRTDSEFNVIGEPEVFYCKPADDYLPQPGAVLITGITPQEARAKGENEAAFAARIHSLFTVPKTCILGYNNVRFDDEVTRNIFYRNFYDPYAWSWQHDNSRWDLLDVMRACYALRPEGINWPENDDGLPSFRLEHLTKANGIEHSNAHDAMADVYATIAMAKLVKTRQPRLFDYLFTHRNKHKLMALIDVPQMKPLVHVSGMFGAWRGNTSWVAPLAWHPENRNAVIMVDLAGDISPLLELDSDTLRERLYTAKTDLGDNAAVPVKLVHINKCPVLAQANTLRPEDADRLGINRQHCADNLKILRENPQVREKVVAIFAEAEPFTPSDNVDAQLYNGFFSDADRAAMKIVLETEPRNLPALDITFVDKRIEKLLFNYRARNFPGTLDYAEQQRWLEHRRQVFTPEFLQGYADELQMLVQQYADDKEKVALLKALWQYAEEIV

ExoI Arg327Ala variant = target: T5, ExoI Arg327Ala variant (Escherichia coli, UniProt P04995 1-475)
T5 construct: also called R327A
T5 sequence: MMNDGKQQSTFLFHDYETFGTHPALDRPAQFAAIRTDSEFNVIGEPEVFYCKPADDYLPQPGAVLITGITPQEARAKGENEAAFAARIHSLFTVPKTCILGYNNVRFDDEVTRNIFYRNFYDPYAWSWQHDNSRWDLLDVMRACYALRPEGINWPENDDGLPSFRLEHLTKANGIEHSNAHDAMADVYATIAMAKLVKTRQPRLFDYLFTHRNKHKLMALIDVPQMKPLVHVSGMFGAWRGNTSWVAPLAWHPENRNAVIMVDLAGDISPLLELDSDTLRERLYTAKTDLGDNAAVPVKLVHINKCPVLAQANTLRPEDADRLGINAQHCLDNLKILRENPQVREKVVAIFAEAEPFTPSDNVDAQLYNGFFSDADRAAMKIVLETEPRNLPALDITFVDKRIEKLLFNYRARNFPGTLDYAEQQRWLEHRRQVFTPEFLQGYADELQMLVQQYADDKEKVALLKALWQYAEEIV

B1: fluorescein-labeled SSB C-terminal peptide (fluorescein-WMDFDDDIPF) (peptide)
peptide: fluorescein-WMDFDDDIPF
notes: also called F-SSB-Ct; F-WT
Kd (ExoI Arg148Ala variant): > 1000 nM
Kd (ExoI Lys227Ala variant): ~1000 nM
Kd (ExoI Gln311Ala variant): 304 nM
Kd (ExoI Leu331Ala variant): 193 nM
Kd (ExoI Arg327Ala variant): 270 nM

From patent US8415393B2, “Anti-bacterial drug targeting of genome maintenance interfaces” (Wisconsin Alumni Research Foundation, priority 2007, dated 2013)
